This series has as its target T1, purified mouse serpinB13 (GenScript) (UniProt Q8CDC0).
T1 sequence: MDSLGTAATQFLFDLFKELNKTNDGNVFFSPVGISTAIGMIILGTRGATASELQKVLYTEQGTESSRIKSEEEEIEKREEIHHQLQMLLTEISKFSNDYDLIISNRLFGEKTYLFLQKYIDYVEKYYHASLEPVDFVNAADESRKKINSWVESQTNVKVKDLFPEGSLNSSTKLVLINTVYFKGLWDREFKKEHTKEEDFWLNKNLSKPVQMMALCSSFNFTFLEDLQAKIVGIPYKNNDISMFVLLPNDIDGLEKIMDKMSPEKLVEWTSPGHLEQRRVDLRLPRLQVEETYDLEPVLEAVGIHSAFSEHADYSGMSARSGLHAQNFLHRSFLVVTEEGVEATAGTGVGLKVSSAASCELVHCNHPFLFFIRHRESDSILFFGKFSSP

For Cathepsin L (Calbiochem), the “cleavage of (CBZ-Phe-Arg)2-R110 substrate by cathepsin L in the presence of serpinB13 (fold induction of maximum fluorescence over background)” value was “cathepsin L-mediated cleavage of the fluorescent substrate (CBZ-Phe-Arg)2-R110 from inhibition by serpinB13 in vitro”.

The record behind these values is patent publication US20150306193.
